[ ]: non-standard residue; d: D form. 2Nal = N[C@@H](Cc1ccc2ccccc2c1)C(=O)O
Molecular target: Recombinant PLA2GIB enzyme (sPLA2GIB produced in E. coli) (UniProt P04054 23-148)
Experiment: cell-based or functional assay

Recombinant PLA2GIB enzyme (sPLA2GIB produced in E. coli), sequence (P04054 23-148 limits assumed): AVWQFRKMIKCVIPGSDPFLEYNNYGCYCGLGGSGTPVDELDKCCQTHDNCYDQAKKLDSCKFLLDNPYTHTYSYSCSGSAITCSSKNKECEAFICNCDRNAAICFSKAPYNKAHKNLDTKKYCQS

cyclo([2Nal]LS[2Nal]R) [Peptide I (cyclic(2-NaphthylAla-Leu-Ser-2-NaphthylAla-Arg))]
IC50 of inhibition of PLA2GIB activity in the bioassay (inhibition of IL-7-induced nuclear translocation of phospho STAT5 in CD4 T cells, STED microscopy): ~4.9 µM
